From article PMC7074997, “Biodiesel and flavor compound production using a novel promiscuous cold-adapted SGNH-type lipase (HaSGNH1) from the psychrophilic bacterium Halocynthiibacter arcticus” (Biotechnology for Biofuels, 2020)
Substitutions are numbered along the chain they refer to. Names may count otherwise.

B1: HaSGNH1 (Falsihalocynthiibacter arcticus) (protein)
chain: MSARVQAETVVIAALGDSLTQGYGLPQEDGLVAQLQGWLDENNHDIRLINAGVSGDTTAGGRSRIEWTLTPDVDAVIVELGGNDMMRGIAPSDSRKNLTEILEILQSRDLPVLLVGLPSANNFGPEFKAEFDDMFPALSTDFETLLYPDFFTSFRTKLNDTSALTTYMQDDAIHPNAKGVAAIVEDFGPLVVELAQQTQE
notes: ORF cloned from genomic DNA (primer starts ATG AGT GCT CGC GTT: MSARV), pET-21a, N-terminal His6 tag, E. coli BL21(DE3)
B2: HaSGNH1 (Falsihalocynthiibacter arcticus; M86E) (protein)
chain: B1 chain with M86E
notes: as for B1
B3: HaSGNH1 (Falsihalocynthiibacter arcticus; M86R) (protein)
chain: B1 chain with M86R
notes: as for B1
B4: HaSGNH1 (Falsihalocynthiibacter arcticus; R87L) (protein)
chain: B1 chain with R87L
notes: as for B1

Columns and labels:
Experiment in all cases: purified protein
Type in all cases: biochemical, Falsihalocynthiibacter arcticus
Details in all cases: free enzyme, 20 mM Tris-HCl pH 8.0, 25 °C (standard assay)
purified protein [1] = substrate: CCCC(=O)Oc1ccc([N+](=O)[O-])cc1
purified protein [2] = substrate: CC(=O)Oc1ccc([N+](=O)[O-])cc1
purified protein [3] = substrate: CCCCCC(=O)Oc1ccc([N+](=O)[O-])cc1

Protein | Km (purified protein [1]) | Vmax (purified protein [1]) | kcat (purified protein [1]) | kcat/Km (purified protein [1]) | Km (purified protein [2]) | Vmax (purified protein [2]) | kcat (purified protein [2]) | kcat/Km (purified protein [2]) | Km (purified protein [3]) | Vmax (purified protein [3]) | kcat (purified protein [3]) | kcat/Km (purified protein [3])
B1 | 0.80 (± 0.23) mM | 60 µM/min | 17.1 ± 1.83 s⁻¹ | 21300 M⁻¹ s⁻¹ | 0.93 (± 0.15) mM | 29.4 µM/min | 8.38 ± 0.53 s⁻¹ | 8900 M⁻¹ s⁻¹ | 0.99 (± 0.20) mM | 57.6 µM/min | 16.5 ± 1.45 s⁻¹ | 16700 M⁻¹ s⁻¹
B2 | 1.06 (± 0.23) mM | 36.6 µM/min | 4 ± 0.39 s⁻¹ | 3800 M⁻¹ s⁻¹ | – | – | – | – | – | – | – | –
B3 | 1.26 (± 0.17) mM | 46.8 µM/min | 5.1 ± 0.35 s⁻¹ | 4200 M⁻¹ s⁻¹ | – | – | – | – | – | – | – | –
B4 | 0.68 (± 0.10) mM | 69 µM/min | 15 ± 0.84 s⁻¹ | 22200 M⁻¹ s⁻¹ | – | – | – | – | – | – | – | –
